B1: durvalumab-based anti-hPD-L1 IgG4 antibody C5 (antibody, V domains shown)
VH: EVQLVESGGGLVQPGGSLRLSCAASGFTFSRYWMSWVRQAPGKGLEWVALISRDGSETYYVDSVKGRFTISRDNAKNSLYLQMNSLRAEDTAVYYCAREGGWFGELAFDYWGQGTLVTVSS
VL: IVLTQSPGTLSLSPGERATLSCKASEDIGTWLAWYQQKPGQAPRLLIYDASSRATGIPDRFSGSGSGTDFTLTISRLEPEDFAVYYCQQYGSLPWTFGQGTKVEIK
notes: IgG4 heavy chain; IgG4; recombinant human anti-PD-L1 antibody, previously modeled, durvalumab-based; also called C5 antibody; full C5 antibody; source: produced by Recepton, purified (MabSelect Sure, SEC); copies: 2 + 2
B2: C5M1A, asymmetric knob-into-hole C5 IgG4 with one of the Fabs replaced by M1 (bispecific antibody, V domains shown)
VH: EVQLVESGGGLVQPGGSLRLSCAASGFTFSRYWMSWVRQAPGKGLEWVALISRDGSETYYVDSVKGRFTISRDNAKNSLYLQMNSLRAEDTAVYYCAREGGWFGELAFDYWGQGTLVTVSS
VL: IVLTQSPGTLSLSPGERATLSCKASEDIGTWLAWYQQKPGQAPRLLIYDASSRATGIPDRFSGSGSGTDFTLTISRLEPEDFAVYYCQQYGSLPWTFGQGTKVEIK
notes: it replaces one Fab; human IgG4 constant region, hinge and Fc as in the heavy chain of m7, with knob-into-hole mutations; copies: 1 + 1 + 1
B3: C5M1B, C5 scFv with M1 attached to its C-terminus by a (GGGGS)4 linker (bispecific antibody, V domains shown)
VH: EVQLVESGGGLVQPGGSLRLSCAASGFTFSRYWMSWVRQAPGKGLEWVALISRDGSETYYVDSVKGRFTISRDNAKNSLYLQMNSLRAEDTAVYYCAREGGWFGELAFDYWGQGTLVTVSS
VL: IVLTQSPGTLSLSPGERATLSCKASEDIGTWLAWYQQKPGQAPRLLIYDASSRATGIPDRFSGSGSGTDFTLTISRLEPEDFAVYYCQQYGSLPWTFGQGTKVEIK
notes: linker printed as (GGGGS)4

These binders were tested against T1, programmed death ligand 1 (PD-L1) (Homo sapiens, UniProt Q9NZQ7) (assay: ELISA; indirect ELISA; MaxiSorp plates coated with protein overnight at 4 °C, blocked with 1% BSA in PBS, ligands diluted in PBS 1 h at RT, detection with anti-IgG Fc or anti-His-Tag antibody and HRP-streptavidin, TMB; the paper does not say for each pair which partner was coated). Details: both partners purified.
T1 construct: human programmed death ligand 1; HEK293 transient, Ni Sepharose and SEC; also called hPD-L1
T1 sequence (Q9NZQ7 19-290): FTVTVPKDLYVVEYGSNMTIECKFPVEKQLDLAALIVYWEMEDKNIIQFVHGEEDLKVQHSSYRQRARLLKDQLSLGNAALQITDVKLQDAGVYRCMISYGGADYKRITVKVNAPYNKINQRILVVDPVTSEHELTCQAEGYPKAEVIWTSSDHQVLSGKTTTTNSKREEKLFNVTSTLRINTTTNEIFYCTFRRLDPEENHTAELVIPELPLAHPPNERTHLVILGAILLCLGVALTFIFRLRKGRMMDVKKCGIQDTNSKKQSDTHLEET
B1: binds. B2: binds. B3: binds.

Source: paper PMC10673611 (Molecules, 2023)
